Test results reported in PMC9953004, “Scandium-44 Radiolabeled Peptide and Peptidomimetic Conjugates Targeting Neuropilin-1 Co-Receptor as Potential Tools for Cancer Diagnosis and Anti-Angiogenic Therapy” (Biomedicines, 2023).
Where a SMILES comes first, the peptide text is derived from it. Where no end group is shown, it is not given here. Side-chain parts run from the residue outwards. [ ]: non-standard residue; d: D form. The star is where a group is joined. DOTA = O=C(O)CN1CCN(CC(=O)O)CCN(CC(=O)*)CCN(CC(=O)O)CC1; hArg = N=C(N)NCCCC[C@H](N)C(=O)O; Dab = NCC[C@H](N)C(=O)O; Ahx = NCCCCCC(=O)O

Experiments:
VEGF-A165/NRP-1 complex = target: T1, VEGF-A165/NRP-1 complex (Homo sapiens, UniProt O14786); test: Competitive NRP-1-binding inhibition assay (competitive ELISA, bt-VEGF-A165 vs coated NRP-1); conditions: for logIC50 ± SD / IC50: inhibition of VEGF-A165/NRP-1 complex formation, mean ± SD, n = 3; for binding affinity for NRP-1: summary of competitive ELISA results
T1 construct: purchased BioLegend (NRP-1); Abcam (bt-VEGF-A165)
T1 sequence (O14786 22-641 limits assumed): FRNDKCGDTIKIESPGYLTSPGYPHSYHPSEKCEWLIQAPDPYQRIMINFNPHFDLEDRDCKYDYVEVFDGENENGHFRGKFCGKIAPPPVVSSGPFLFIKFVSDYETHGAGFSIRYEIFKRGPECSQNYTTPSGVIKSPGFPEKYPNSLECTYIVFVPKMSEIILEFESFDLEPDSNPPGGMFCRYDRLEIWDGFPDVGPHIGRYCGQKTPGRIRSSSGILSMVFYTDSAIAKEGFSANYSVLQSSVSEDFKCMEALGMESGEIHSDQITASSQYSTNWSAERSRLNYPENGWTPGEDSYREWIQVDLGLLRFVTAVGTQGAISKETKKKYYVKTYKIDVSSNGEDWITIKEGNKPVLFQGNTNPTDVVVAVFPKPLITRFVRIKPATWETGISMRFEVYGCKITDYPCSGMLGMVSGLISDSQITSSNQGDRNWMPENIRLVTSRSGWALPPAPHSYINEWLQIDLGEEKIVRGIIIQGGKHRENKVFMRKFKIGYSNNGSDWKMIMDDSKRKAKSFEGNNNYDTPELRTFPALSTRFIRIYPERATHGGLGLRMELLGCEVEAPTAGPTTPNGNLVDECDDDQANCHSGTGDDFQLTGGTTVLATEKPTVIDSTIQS
Procedure: The study of biological activity (inhibition of VEGF-A165/NRP-1 binding) of Sc-1, Sc-1bis, Sc-2, Sc-3 and Ga-3 compounds was tested by competitive ELISA test. The method used was similar to the one previously described. Briefly, the first step was to coat the bottom surface of a 96-well plate using 100 µL (200 ng/well) of recombinant human NRP-1 and incubate overnight at 4 °C. Nonspecific binding was blocked with 0.5% BSA (bovine serum albumin) in PBS. Following this, 50 µL of the solution of tested compound in PBS, in the selected concentrations (100 [µM], 50 [µM], 25 [µM], 12.5 [µM] and […]), and 50 µL (400 ng/mL) of human (bt)-VEGF-A165 in PBS containing 4 µg/mL of heparin were added. After 2 h of incubation at room temperature, the plate was washed and treated with a streptavidin–horseradish peroxidase conjugate in PBS (1:100) for 45 min. After the final wash, the chemiluminescence was quantified immediately after addition of 100 μL chemiluminescent substrate. Wells incubated with (bt)-VEGF-A165 served only as positive control (P), while wells not coated with NRP-1 were used as negative control (NS). Percentages of inhibition were calculated according to the following formula. % inhibition=100% −(S−NS)·100%/P−NS where: S—measured signal, NS—negative control signal, P—positive control signal. Test IC50 [µM] values (mean ± SD of three independent experiments) were determined by nonlinear regression analysis (log(inhibitor) vs. normalized response—variable slope) generated in GraphPad Prism 9.0.0 program (Graph Pad, San Diego, CA, USA).

physchem = assay type: physicochemical; conditions: for logP ± SD: pH 7.4
Procedure: The lipophilicity value, defined as the decimal logarithm (logP) of the partition coefficient (P), was tested in the system of two immiscible (but saturated with each other) phases: 0.1 M PBS solution, pH 7.4, and n-octanol, in three independent experiments. Partition coefficient was determined as a ratio of radioactivity of the organic (n-octanol) and aqueous (PBS solution) phases and was shown as the mean ± SD. The lipophilicity test was carried out as follows: the tested radiocompound dissolved in 10–20 µL of PBS was incubated and intensively mixed in an equal amount of these two phases. After centrifugation, radioactivity of appropriate amounts of the separated organic (500 µL) and aqueous (100 µL) phases were measured on the Wizard gamma counter. Differences in the volume of phases taken for measurement resulted from the very low radioactivity of organic phases and were included in the calculations. Additionally, to confirm the stability of the studied radiocompounds during the experiment, the RP-HPLC analyses of the aqueous phase were performed after each lipophilicity test.

[1] = assay type: in vitro ADME, human
Procedure: (§1) Radioconjugate stability tests in 0.1 M PBS solution, 1 mM cysteine (Cys) solution, 1 mM histidine (His) solution and human serum (HS) were performed under rigorous conditions according to the procedure described in detail in our previous paper. In brief, isolated radioconjugates were dissolved in 50 µL PBS and appropriate volume of Cys, His and HS solution and then incubated at 37 °C. After the specified incubation time (depending on the half-life of a given radionuclide), which was up to 4–8 h for the ^44Sc-radiocompounds, 4 h for the ^68Ga-radiocompounds and about 6–14 days for the ^177Lu-radiocompounds, aliquots of solution were withdrawn from the mixture and the composition of the solution was analyzed on RP-HPLC in System 3 or 4 with gamma detection. The concentrations of Cys and His solutions were about 1000 times higher than that of the studied radiocompound. In the case of the radioconjugate stability study in HS, the concentration of the radiocompound was a maximum of 2–25 nmol/mL in 100% human serum. After incubation, the protein components were precipitated with a 2.5-fold volume excess of ethanol prior to RP-HPLC analysis, and then both the supernatant and precipitate radioactivity were measured with a Wizard gamma counter. The percentage of radioactivity remaining in the supernatant and bound by the precipitated serum protein components was calculated as the ratio of the radioactivity of the supernatant or the precipitate, respectively, to the sum of the radioactivity of the supernatant and the precipitate.

[2] = assay type: physicochemical; conditions: pH 7.4
Procedure: as §1

logIC50 ± SD (VEGF-A165/NRP-1 complex) | binding affinity for NRP-1 (VEGF-A165/NRP-1 complex) | Molecule | logP ± SD (physchem) | stability in human serum [1] | stability in PBS buffer [2] | further results
−5.32 ± 0.12 | high binding affinity | N=C(N)NCCCC[C@H](N)C(=O)NCCCC[C@H](N)C(=O)N[C@@H](CCN)C(=O)N1CCC[C@H]1C(=O)N[C@@H](CCCNC(=N)N)C(=O)O [K4R, Lys(hArg)-Dab-Pro-Arg] (H-K(hArg)[Dab]PR-OH) |  |  |  | 
 | very low binding affinity | CC(C)C[C@@H](NC(=O)[C@H]1CCCN1C(=O)[C@H]1CCCN1C(=O)[C@H](N)CCCNC(=N)N)C(=O)N[C@H](Cc1c[nH]c2ccccc12)C(=O)N[C@@H](C(=O)N[C@H](C)C(=O)O)[C@H](C)O [^DR7A, DArg-DPro-DPro-DLeu-DTrp-DThr-DAla, reference compound] (H-[dR][dP][dP][dL][dW][dT][dA]-OH; C-terminus assumed) |  |  |  | IC50 (VEGF-A165/NRP-1 complex): > 100 µM
−4.73 ± 0.03 | high binding affinity | N=C(N)NCCCC[C@H](N)C(=O)NCCCC[C@H](N)C(=O)N[C@@H](CCNC(=O)CCCCCNC(=O)CN1CCN(CC(=O)O)CCN(CC(=O)O)CCN(CC(=O)O)CC1)C(=O)N1CCC[C@H]1C(=O)N[C@@H](CCCNC(=N)N)C(=O)O [Sc-2, Lys(hArg)-Dab(Ahx-DOTA-Sc)-Pro-Arg] (H-K(hArg)[Dab]([Ahx-DOTA])PR-OH) |  |  |  | 
−4.65 ± 0.12 | high binding affinity | CC(C)C[C@H](NC(=O)[C@H](Cc1c[nH]c2ccccc12)NC(=O)[C@@H](NC(=O)[C@H](C)NC(=O)CCCCCNC(=O)CN1CCN(CC(=O)O)CCN(CC(=O)O)CCN(CC(=O)O)CC1)[C@@H](C)O)C(=O)N1CCC[C@H]1C(=O)N1CCC[C@H]1C(=O)N[C@@H](CCCNC(=N)N)C(=O)O [Sc-1, Sc-DOTA-Ahx-A7R] ({DOTA-Ahx}-ATWLPPR-OH) |  |  |  | 
−4.74 ± 0.01 | high binding affinity | CC(C)C[C@H](NC(=O)[C@H](Cc1c[nH]c2ccccc12)NC(=O)[C@@H](NC(=O)[C@H](C)NC(=O)[C@@H](N)CCCCNC(=O)CN1CCN(CC(=O)O)CCN(CC(=O)O)CCN(CC(=O)O)CC1)[C@@H](C)O)C(=O)N1CCC[C@H]1C(=O)N1CCC[C@H]1C(=O)N[C@@H](CCCNC(=N)N)C(=O)O [Sc-1bis, Lys(DOTA-Sc)-A7R] (H-K(DOTA)ATWLPPR-OH) |  |  |  | 
 | very low binding affinity | CC(C)C[C@@H](NC(=O)[C@H]1CCCN1C(=O)[C@H]1CCCN1C(=O)[C@H](N)CCCNC(=N)N)C(=O)N[C@H](Cc1c[nH]c2ccccc12)C(=O)N[C@@H](C(=O)N[C@H](C)C(=O)N[C@H](CCCCNC(=O)CN1CCN(CC(=O)O)CCN(CC(=O)O)CCN(CC(=O)O)CC1)C(=O)O)[C@H](C)O [Sc-3, ^DR7A-^DLys(DOTA-Sc)] (H-[dR][dP][dP][dL][dW][dT][dA][dK](DOTA)-OH) |  |  |  | 

Second part, the molecule before the results:

Molecule | logIC50 ± SD (VEGF-A165/NRP-1 complex) | binding affinity for NRP-1 (VEGF-A165/NRP-1 complex) | logP ± SD (physchem) | stability in human serum [1] | stability in PBS buffer [2] | further results
CC(C)C[C@@H](NC(=O)[C@H]1CCCN1C(=O)[C@H]1CCCN1C(=O)[C@H](N)CCCNC(=N)N)C(=O)N[C@H](Cc1c[nH]c2ccccc12)C(=O)N[C@@H](C(=O)N[C@H](C)C(=O)N[C@H](CCCCNC(=O)CN1CCN(CC(=O)O)CCN(CC(=O)O)CCN(CC(=O)O)CC1)C(=O)O)[C@H](C)O [^177Lu-3, [^177Lu]^DR7A-^DLys(DOTA-Lu), metal not drawn] (H-[dR][dP][dP][dL][dW][dT][dA][dK](DOTA)-OH) |  |  | −4.48 ± 0.05 | insufficient stability | complete stability | 
CC(C)C[C@H](NC(=O)[C@H](Cc1c[nH]c2ccccc12)NC(=O)[C@@H](NC(=O)[C@H](C)NC(=O)CCCCCNC(=O)CN1CCN(CC(=O)O)CCN(CC(=O)O)CCN(CC(=O)O)CC1)[C@@H](C)O)C(=O)N1CCC[C@H]1C(=O)N1CCC[C@H]1C(=O)N[C@@H](CCCNC(=N)N)C(=O)O [^44Sc-1, [^44Sc]Sc-DOTA-Ahx-A7R, metal not drawn] ({DOTA-Ahx}-ATWLPPR-OH) |  |  |  | insufficient stability | complete stability | logP (physchem; pH 7.4, logP ± SD): -3.44 ± 0.02
CC(C)C[C@@H](NC(=O)[C@H]1CCCN1C(=O)[C@H]1CCCN1C(=O)[C@H](N)CCCNC(=N)N)C(=O)N[C@H](Cc1c[nH]c2ccccc12)C(=O)N[C@@H](C(=O)N[C@H](C)C(=O)N[C@H](CCCCNC(=O)CN1CCN(CC(=O)O)CCN(CC(=O)O)CCN(CC(=O)O)CC1)C(=O)O)[C@H](C)O [^68Ga-3, [^68Ga]^DR7A-^DLys(DOTA-Ga), metal not drawn] (H-[dR][dP][dP][dL][dW][dT][dA][dK](DOTA)-OH) |  |  | −4.11 ± 0.06 | insufficient stability | complete stability | 
CC(C)C[C@H](NC(=O)[C@H](Cc1c[nH]c2ccccc12)NC(=O)[C@@H](NC(=O)[C@H](C)NC(=O)[C@@H](N)CCCCNC(=O)CN1CCN(CC(=O)O)CCN(CC(=O)O)CCN(CC(=O)O)CC1)[C@@H](C)O)C(=O)N1CCC[C@H]1C(=O)N1CCC[C@H]1C(=O)N[C@@H](CCCNC(=N)N)C(=O)O [^177Lu-1bis, [^177Lu]Lys(DOTA-Lu)-A7R, metal not drawn] (H-K(DOTA)ATWLPPR-OH) |  |  | −4.45 ± 0.03 | insufficient stability | complete stability | 
ATWLPPR-OH [A7R, Ala-Thr-Trp-Leu-Pro-Pro-Arg, reference compound] | −4.74 ± 0.02 | high binding affinity |  |  |  | 
CC(C)C[C@@H](NC(=O)[C@H]1CCCN1C(=O)[C@H]1CCCN1C(=O)[C@H](N)CCCNC(=N)N)C(=O)N[C@H](Cc1c[nH]c2ccccc12)C(=O)N[C@@H](C(=O)N[C@H](C)C(=O)N[C@H](CCCCNC(=O)CN1CCN(CC(=O)O)CCN(CC(=O)O)CCN(CC(=O)O)CC1)C(=O)O)[C@H](C)O [^44Sc-3, [^44Sc]^DR7A-^DLys(DOTA-Sc), metal not drawn] (H-[dR][dP][dP][dL][dW][dT][dA][dK](DOTA)-OH) |  |  | −3.61 ± 0.03 | insufficient stability | complete stability | 
CC(C)C[C@@H](NC(=O)[C@H]1CCCN1C(=O)[C@H]1CCCN1C(=O)[C@H](N)CCCNC(=N)N)C(=O)N[C@H](Cc1c[nH]c2ccccc12)C(=O)N[C@@H](C(=O)N[C@H](C)C(=O)N[C@H](CCCCNC(=O)CN1CCN(CC(=O)O)CCN(CC(=O)O)CCN(CC(=O)O)CC1)C(=O)O)[C@H](C)O [Ga-3, ^DR7A-^DLys(DOTA-Ga)] (H-[dR][dP][dP][dL][dW][dT][dA][dK](DOTA)-OH) |  |  |  |  |  | IC50 (VEGF-A165/NRP-1 complex): > 100 µM
